Assay results from patent US20230357348A1 (AstraZeneca / MedImmune, published 2023).
Starred links: 1 amine or outer side, 2 acyl side, 3 side chain; linkers in the order of their positions; H or OH if unused. Non-standard residues stand in square brackets, D forms with d. Groups on a side chain read outwards from the residue. No end group written: not given here. *: point of attachment. C20 diacid = O=C(O)CCCCCCCCCCCCCCCCCCC(=O)*; C18 diacid = O=C(O)CCCCCCCCCCCCCCCCC(=O)*; γGlu = O=C(O)[C@H](CCC(=O)[*:2])N[*:1]; αMeF = C[C@](N)(Cc1ccccc1)C(=O)O; AEEA = NCCOCCOCC(=O)O; Aib = CC(C)(N)C(=O)O

How the values were obtained:
human GLP-1 receptor = human GLP-1 receptor (human, UniProt P43220 24-463); assay: cell-based or functional assay
human glucagon receptor = human glucagon receptor (human, UniProt P47871 26-477); assay: cell-based or functional assay
human glucagon receptor, sequence (P47871 26-477): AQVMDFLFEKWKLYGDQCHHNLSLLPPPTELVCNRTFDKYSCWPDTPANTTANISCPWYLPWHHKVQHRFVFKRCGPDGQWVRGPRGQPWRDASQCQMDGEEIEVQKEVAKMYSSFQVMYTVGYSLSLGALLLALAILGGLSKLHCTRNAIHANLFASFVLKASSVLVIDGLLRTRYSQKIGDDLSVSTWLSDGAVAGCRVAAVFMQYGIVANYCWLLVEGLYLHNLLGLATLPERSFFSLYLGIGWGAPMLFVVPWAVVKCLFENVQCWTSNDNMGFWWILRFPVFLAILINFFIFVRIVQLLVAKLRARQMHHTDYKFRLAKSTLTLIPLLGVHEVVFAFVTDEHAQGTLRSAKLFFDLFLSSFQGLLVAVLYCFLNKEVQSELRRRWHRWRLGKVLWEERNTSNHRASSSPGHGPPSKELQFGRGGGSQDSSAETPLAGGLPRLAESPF

H[Aib]HGS[αMeF]TSDVSK[αMeF]LDSR[Aib]AK([AEEA-AEEA-γGlu-γGlu-C18 diacid])D[αMeF]VESIANT-NH2 [Peptide 250]
hGLP-1R EC50 (pM), cAMP (human GLP-1 receptor): 601 pM
hGluc-R EC50 (pM), cAMP (human glucagon receptor): 1570 pM

B1: Peptide 213 (peptide)
peptide: H[Aib]HGS[αMeF]TSDVSK[αMeF]LDSRAAK([AEEA-AEEA-γGlu-γGlu-C20 diacid])DFVEWIANT-NH2
modifications: N-terminus assumed
SMILES: CC[C@H](C)[C@H](NC(=O)[C@H](Cc1c[nH]c2ccccc12)NC(=O)[C@H](CCC(=O)O)NC(=O)[C@@H](NC(=O)[C@H](Cc1ccccc1)NC(=O)[C@H](CC(=O)O)NC(=O)[C@H](CCCCNC(=O)COCCOCCNC(=O)COCCOCCNC(=O)CC[C@H](NC(=O)CC[C@H](NC(=O)CCCCCCCCCCCCCCCCCCC(=O)O)C(=O)O)C(=O)O)NC(=O)[C@H](C)NC(=O)[C@H](C)NC(=O)[C@H](CCCNC(=N)N)NC(=O)[C@H](CO)NC(=O)[C@H](CC(=O)O)NC(=O)[C@H](CC(C)C)NC(=O)[C@](C)(Cc1ccccc1)NC(=O)[C@H](CCCCN)NC(=O)[C@H](CO)NC(=O)[C@@H](NC(=O)[C@H](CC(=O)O)NC(=O)[C@H](CO)NC(=O)[C@@H](NC(=O)[C@](C)(Cc1ccccc1)NC(=O)[C@H](CO)NC(=O)CNC(=O)[C@H](Cc1c[nH]cn1)NC(=O)C(C)(C)NC(=O)[C@@H](N)Cc1c[nH]cn1)[C@@H](C)O)C(C)C)C(C)C)C(=O)N[C@@H](C)C(=O)N[C@@H](CC(N)=O)C(=O)N[C@H](C(N)=O)[C@@H](C)O
hGLP-1R EC50 (pM), cAMP (human GLP-1 receptor): 534 pM
hGluc-R EC50 (pM), cAMP (human glucagon receptor): 141 pM

H[Aib]HGS[αMeF]TSDVSK[αMeF]LDSRAAK([AEEA-AEEA-γGlu-C18 diacid])D[αMeF]VE[Aib]IANT-NH2 [Peptide 227]
hGLP-1R EC50 (pM), cAMP (human GLP-1 receptor): 70.5 pM
hGluc-R EC50 (pM), cAMP (human glucagon receptor): 27.2 pM

H[Aib]HGS[αMeF]TSDVSK[αMeF]LDSR[Aib]AK([AEEA-AEEA-γGlu-C18 diacid])DFVESIANT-NH2 (not fully specified) [Peptide 251]
hGLP-1R EC50 (pM), cAMP (human GLP-1 receptor): 79.8 pM
hGluc-R EC50 (pM), cAMP (human glucagon receptor): 248 pM

B2: Peptide 210 (peptide)
peptide: H[Aib]HGS[αMeF]TSDVSK[αMeF]LDSQAAK([AEEA-AEEA-γGlu-γGlu-C18 diacid])DFVEWIANT-NH2
modifications: N-terminus assumed
SMILES: CC[C@H](C)[C@H](NC(=O)[C@H](Cc1c[nH]c2ccccc12)NC(=O)[C@H](CCC(=O)O)NC(=O)[C@@H](NC(=O)[C@H](Cc1ccccc1)NC(=O)[C@H](CC(=O)O)NC(=O)[C@H](CCCCNC(=O)COCCOCCNC(=O)COCCOCCNC(=O)CC[C@H](NC(=O)CC[C@H](NC(=O)CCCCCCCCCCCCCCCCC(=O)O)C(=O)O)C(=O)O)NC(=O)[C@H](C)NC(=O)[C@H](C)NC(=O)[C@H](CCC(N)=O)NC(=O)[C@H](CO)NC(=O)[C@H](CC(=O)O)NC(=O)[C@H](CC(C)C)NC(=O)[C@](C)(Cc1ccccc1)NC(=O)[C@H](CCCCN)NC(=O)[C@H](CO)NC(=O)[C@@H](NC(=O)[C@H](CC(=O)O)NC(=O)[C@H](CO)NC(=O)[C@@H](NC(=O)[C@](C)(Cc1ccccc1)NC(=O)[C@H](CO)NC(=O)CNC(=O)[C@H](Cc1c[nH]cn1)NC(=O)C(C)(C)NC(=O)[C@@H](N)Cc1c[nH]cn1)[C@@H](C)O)C(C)C)C(C)C)C(=O)N[C@@H](C)C(=O)N[C@@H](CC(N)=O)C(=O)N[C@H](C(N)=O)[C@@H](C)O
hGLP-1R EC50 (pM), cAMP (human GLP-1 receptor): 156 pM
hGluc-R EC50 (pM), cAMP (human glucagon receptor): 93.7 pM

H[Aib]HGS[αMeF]TSDVSK[αMeF]LDSRAAK([AEEA-AEEA-γGlu-γGlu-C20 diacid])D[αMeF]VQSIANT-NH2 (not fully specified) [Peptide 244]
hGLP-1R EC50 (pM), cAMP (human GLP-1 receptor): 143 pM
hGluc-R EC50 (pM), cAMP (human glucagon receptor): 420 pM

B3: Peptide 233 (peptide)
peptide: H[Aib]HGS[αMeF]TSDVSK[αMeF]LDSRAAK([AEEA-AEEA-γGlu-γGlu-C20 diacid])D[αMeF]VQ[Aib]IANTGG-NH2
modifications: N-terminus assumed
SMILES: CC[C@H](C)[C@H](NC(=O)C(C)(C)NC(=O)[C@H](CCC(N)=O)NC(=O)[C@@H](NC(=O)[C@](C)(Cc1ccccc1)NC(=O)[C@H](CC(=O)O)NC(=O)[C@H](CCCCNC(=O)COCCOCCNC(=O)COCCOCCNC(=O)CC[C@H](NC(=O)CC[C@H](NC(=O)CCCCCCCCCCCCCCCCCCC(=O)O)C(=O)O)C(=O)O)NC(=O)[C@H](C)NC(=O)[C@H](C)NC(=O)[C@H](CCCNC(=N)N)NC(=O)[C@H](CO)NC(=O)[C@H](CC(=O)O)NC(=O)[C@H](CC(C)C)NC(=O)[C@](C)(Cc1ccccc1)NC(=O)[C@H](CCCCN)NC(=O)[C@H](CO)NC(=O)[C@@H](NC(=O)[C@H](CC(=O)O)NC(=O)[C@H](CO)NC(=O)[C@@H](NC(=O)[C@](C)(Cc1ccccc1)NC(=O)[C@H](CO)NC(=O)CNC(=O)[C@H](Cc1c[nH]cn1)NC(=O)C(C)(C)NC(=O)[C@@H](N)Cc1c[nH]cn1)[C@@H](C)O)C(C)C)C(C)C)C(=O)N[C@@H](C)C(=O)N[C@@H](CC(N)=O)C(=O)N[C@H](C(=O)NCC(=O)NCC(N)=O)[C@@H](C)O
hGluc-R EC50 (pM), cAMP (human glucagon receptor): 407 pM

B4: Peptide 246 (peptide)
peptide: H[Aib]HGS[αMeF]TSDVSK[αMeF]LDSRAAK([AEEA-AEEA-γGlu-γGlu-C20 diacid])D[αMeF]VESIANT-NH2
modifications: N-terminus assumed
SMILES: CC[C@H](C)[C@H](NC(=O)[C@H](CO)NC(=O)[C@H](CCC(=O)O)NC(=O)[C@@H](NC(=O)[C@](C)(Cc1ccccc1)NC(=O)[C@H](CC(=O)O)NC(=O)[C@H](CCCCNC(=O)COCCOCCNC(=O)COCCOCCNC(=O)CC[C@H](NC(=O)CC[C@H](NC(=O)CCCCCCCCCCCCCCCCCCC(=O)O)C(=O)O)C(=O)O)NC(=O)[C@H](C)NC(=O)[C@H](C)NC(=O)[C@H](CCCNC(=N)N)NC(=O)[C@H](CO)NC(=O)[C@H](CC(=O)O)NC(=O)[C@H](CC(C)C)NC(=O)[C@](C)(Cc1ccccc1)NC(=O)[C@H](CCCCN)NC(=O)[C@H](CO)NC(=O)[C@@H](NC(=O)[C@H](CC(=O)O)NC(=O)[C@H](CO)NC(=O)[C@@H](NC(=O)[C@](C)(Cc1ccccc1)NC(=O)[C@H](CO)NC(=O)CNC(=O)[C@H](Cc1c[nH]cn1)NC(=O)C(C)(C)NC(=O)[C@@H](N)Cc1c[nH]cn1)[C@@H](C)O)C(C)C)C(C)C)C(=O)N[C@@H](C)C(=O)N[C@@H](CC(N)=O)C(=O)N[C@H](C(N)=O)[C@@H](C)O
hGLP-1R EC50 (pM), cAMP (human GLP-1 receptor): 320 pM
hGluc-R EC50 (pM), cAMP (human glucagon receptor): 557 pM

B5: Peptide 215 (peptide)
peptide: H[Aib]HGS[αMeF]TSDVSK[αMeF]LDSRAAK([AEEA-AEEA-γGlu-C20 diacid])D[αMeF]VQWIANT-NH2
modifications: N-terminus assumed
SMILES: CC[C@H](C)[C@H](NC(=O)[C@H](Cc1c[nH]c2ccccc12)NC(=O)[C@H](CCC(N)=O)NC(=O)[C@@H](NC(=O)[C@](C)(Cc1ccccc1)NC(=O)[C@H](CC(=O)O)NC(=O)[C@H](CCCCNC(=O)COCCOCCNC(=O)COCCOCCNC(=O)CC[C@H](NC(=O)CCCCCCCCCCCCCCCCCCC(=O)O)C(=O)O)NC(=O)[C@H](C)NC(=O)[C@H](C)NC(=O)[C@H](CCCNC(=N)N)NC(=O)[C@H](CO)NC(=O)[C@H](CC(=O)O)NC(=O)[C@H](CC(C)C)NC(=O)[C@](C)(Cc1ccccc1)NC(=O)[C@H](CCCCN)NC(=O)[C@H](CO)NC(=O)[C@@H](NC(=O)[C@H](CC(=O)O)NC(=O)[C@H](CO)NC(=O)[C@@H](NC(=O)[C@](C)(Cc1ccccc1)NC(=O)[C@H](CO)NC(=O)CNC(=O)[C@H](Cc1c[nH]cn1)NC(=O)C(C)(C)NC(=O)[C@@H](N)Cc1c[nH]cn1)[C@@H](C)O)C(C)C)C(C)C)C(=O)N[C@@H](C)C(=O)N[C@@H](CC(N)=O)C(=O)N[C@H](C(N)=O)[C@@H](C)O
hGLP-1R EC50 (pM), cAMP (human GLP-1 receptor): 7620 pM
hGluc-R EC50 (pM), cAMP (human glucagon receptor): 2610 pM

H[Aib]HGS[αMeF]TSDVSK[αMeF]LDSR[Aib]AK([γGlu-C18 diacid])DFVESIANT-NH2 [Peptide 254]
hGLP-1R EC50 (pM), cAMP (human GLP-1 receptor): 102 pM
hGluc-R EC50 (pM), cAMP (human glucagon receptor): 125 pM

H[Aib]HGS[αMeF]TSDVSK[αMeF]LDSR[Aib]AK([AEEA-AEEA-γGlu-γGlu-C20 diacid])DFVQ[Aib]IANT-NH2 (not fully specified) [Peptide 221]
hGLP-1R EC50 (pM), cAMP (human GLP-1 receptor): 122 pM
hGluc-R EC50 (pM), cAMP (human glucagon receptor): 123 pM

H[Aib]HGS[αMeF]TSDVSK[αMeF]LDSR[Aib]AK([AEEA-AEEA-γGlu-C20 diacid])DFVESIANT-NH2 [Peptide 252]
hGLP-1R EC50 (pM), cAMP (human GLP-1 receptor): 119 pM
hGluc-R EC50 (pM), cAMP (human glucagon receptor): 1310 pM

B6: Peptide 225 (peptide)
peptide: H[Aib]HGS[αMeF]TSDVSK[αMeF]LDSRAAK([AEEA-AEEA-γGlu-C18 diacid])D[αMeF]VQ[Aib]IANT-NH2
modifications: N-terminus assumed
SMILES: CC[C@H](C)[C@H](NC(=O)C(C)(C)NC(=O)[C@H](CCC(N)=O)NC(=O)[C@@H](NC(=O)[C@](C)(Cc1ccccc1)NC(=O)[C@H](CC(=O)O)NC(=O)[C@H](CCCCNC(=O)COCCOCCNC(=O)COCCOCCNC(=O)CC[C@H](NC(=O)CCCCCCCCCCCCCCCCC(=O)O)C(=O)O)NC(=O)[C@H](C)NC(=O)[C@H](C)NC(=O)[C@H](CCCNC(=N)N)NC(=O)[C@H](CO)NC(=O)[C@H](CC(=O)O)NC(=O)[C@H](CC(C)C)NC(=O)[C@](C)(Cc1ccccc1)NC(=O)[C@H](CCCCN)NC(=O)[C@H](CO)NC(=O)[C@@H](NC(=O)[C@H](CC(=O)O)NC(=O)[C@H](CO)NC(=O)[C@@H](NC(=O)[C@](C)(Cc1ccccc1)NC(=O)[C@H](CO)NC(=O)CNC(=O)[C@H](Cc1c[nH]cn1)NC(=O)C(C)(C)NC(=O)[C@@H](N)Cc1c[nH]cn1)[C@@H](C)O)C(C)C)C(C)C)C(=O)N[C@@H](C)C(=O)N[C@@H](CC(N)=O)C(=O)N[C@H](C(N)=O)[C@@H](C)O
hGLP-1R EC50 (pM), cAMP (human GLP-1 receptor): 34.9 pM
hGluc-R EC50 (pM), cAMP (human glucagon receptor): 145 pM

H[Aib]HGS[αMeF]TSDVSK[αMeF]LDSR[Aib]AK([AEEA-γGlu-C18 diacid])DFVESIANT-NH2 [Peptide 253]
hGLP-1R EC50 (pM), cAMP (human GLP-1 receptor): 75.5 pM
hGluc-R EC50 (pM), cAMP (human glucagon receptor): 53.1 pM
